Results on one protein are retold here after patent publication US20160281104A1 (KOREA ATOMIC ENERGY RESEARCH INSTITUTE, published 2016).

This data set concerns the molecule itself. Kind of data set: size exclusion chromatography (Superdex 200) and native PAGE; self-association. In general terms: SEC sorts molecules by how far they enter the pores of the column.

B1: alkyl hydroperoxide reductase subunit F (AhpF) protein of Pseudomonas aeruginosa (enzyme)
chain: MLDANLKTQLKAYLEKVSQPFEIVASLDDSDKSRELLGLLQDIVGLTDKITLKTDGSDARKPSFSLNRPGADIGLRFAGIPMGHEFTSLVLALLQVGGHPSKLDADVIEQVKGIEGTFEFETYFSLSCQNCPDVVQALNLMAVLNPNIRHVAIDGALFQDEVEARQIMSVPSIYLNGEVFGQGRMGVEEILAKIDTGAAARDAEKLTARDAFDVLVVGGGPAGAAAAIYAARKGIRTGVAAERFGGQVLDTMAIENFISVQETEGPKLARALEEHVRHYEVDIMNLQRASKLVPAKNAGELHEVRFESGGSLKAKTLILATGARWREMGVPGEQEYKAKGVCFCPHCDGPLFKGKRVAVIGGGNSGVEAAIDLAGIVAHVTLLEFDSKLRADAVLQRKLYSLPNVEVITSALTSEVKGDGQKVTGLVYKDRNSEEFKSIELEGIFVQIGLLPNTEWLKGSVELSPRGEIIVDARGETSLPGIFAAGDVTTVPYKQIVIAVGEGAKASLSAFDHLIRTSAPE
notes: Recombinant protein cloned from P. aeruginosa PAO1 genomic DNA and expressed from pET28a in E. coli BL21(DE3); It was purified on Ni-NTA and released from the resin with thrombin, so the His tag was cleaved; also called PaAhpF; AhpF(PA)
B1: the binding result was “binds”.
